# Reference: publication PMC3139177
# Molecular target: Recombinant platelet-derived growth factor-BB (UniProt P01127)
# Experiment: SPR
# Sequence of UniProt P01127 (P01127 82-190): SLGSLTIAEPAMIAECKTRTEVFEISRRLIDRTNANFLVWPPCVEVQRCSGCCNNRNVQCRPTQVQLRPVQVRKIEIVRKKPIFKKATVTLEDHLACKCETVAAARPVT
row,Kd [nM],Substance
1,103,Recombinant fibronectin type III repeat 1 (domain or fragment)
2,9,Recombinant fibronectin type III repeats 13–14 (domain or fragment)
3,141,Recombinant fibronectin variable domain (domain or fragment)
